B1: Peroxisome proliferator-activated receptor gamma coactivator 1-alpha (Homo sapiens), Q9UBK2 (parent)
chain: MAWDMCNQDSESVWSDIECAALVGEDQPLCPDLPELDLSELDVNDLDTDSFLGGLKWCSDQSEIISNQYNNEPSNIFEKIDEENEANLLAVLTETLDSLPVDEDGLPSFDALTDGDVTTDNEASPSSMPDGTPPPQEAEEPSLLKKLLLAPANTQLSYNECSGLSTQNHANHNHRIRTNPAIVKTENSWSNKAKSICQQQKPQRRPCSELLKYLTTNDDPPHTKPTENRNSSRDKCTSKKKSHTQSQSQHLQAKPTTLSLPLTPESPNDPKGSPFENKTIERTLSVELSGTAGLTPPTTPPHKANQDNPFRASPKLKSSCKTVVPPPSKKPRYSESSGTQGNNSTKKGPEQSELYAQLSKSSVLTGGHEERKTKRPSLRLFGDHDYCQSINSKTEILINISQELQDSRQLENKDVSSDWQGQICSSTDSDQCYLRETLEASKQVSPCSTRKQLQDQEIRAELNKHFGHPSQAVFDDEADKTGELRDSDFSNEQFSKLPMFINSGLAMDGLFDDSEDESDKLSYPWDGTQSYSLFNVSPSCSSFNSPCRDSVSPPKSLFSQRPQRMRSRSRSFSRHRSCSRSPYSRSRSRSPGSRSSSRSCYYYESSHYRHRTHRNSPLYVRSRSRSPYSRRPRYDSYEEYQHERLKREEYRREYEKRESERAKQRERQRQKAIEERRVIYVGKIRPDTTRTELRDRFEVFGEIEECTVNLRDDGDSYGFITYRYTCDAFAALENGYTLRRSNETDFELYFCGRKQFFKSNYADLDSNSDDFDPASTKSKYDSLDFDSLLKEAQRSLRR
B2: Peroxisome proliferator-activated receptor gamma coactivator 1-alpha (Homo sapiens), Q9UBK2 (parent)
chain: B1 chain
partner: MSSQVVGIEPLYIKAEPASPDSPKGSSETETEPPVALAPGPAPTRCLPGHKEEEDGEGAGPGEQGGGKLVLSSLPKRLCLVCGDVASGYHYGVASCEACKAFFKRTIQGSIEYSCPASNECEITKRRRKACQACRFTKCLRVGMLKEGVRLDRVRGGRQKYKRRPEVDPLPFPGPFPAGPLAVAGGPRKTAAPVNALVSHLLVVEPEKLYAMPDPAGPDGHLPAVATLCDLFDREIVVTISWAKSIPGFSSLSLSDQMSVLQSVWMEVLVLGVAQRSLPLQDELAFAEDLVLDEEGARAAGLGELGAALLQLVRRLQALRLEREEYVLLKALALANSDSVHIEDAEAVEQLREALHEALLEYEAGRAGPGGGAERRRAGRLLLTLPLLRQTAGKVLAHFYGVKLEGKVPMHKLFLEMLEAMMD

In the test “rxra_human RXRA, P19793” the parent is B1. The conditions noted are these: with rxra_human RXRA.
In the test “esr1_human ESR1, P03372” the parent is B1. The conditions noted are these: with esr1_human ESR1, P03372.
Variants of B2 are the subject of test [1]. The conditions noted are these: with err1_human ESRRA.
The variants in test [2] derive from B2. The conditions noted are these: with err1_human ESRRA. This is another data set of the same source.

Chain of rxra_human RXRA, P19793 (P19793 whole entry): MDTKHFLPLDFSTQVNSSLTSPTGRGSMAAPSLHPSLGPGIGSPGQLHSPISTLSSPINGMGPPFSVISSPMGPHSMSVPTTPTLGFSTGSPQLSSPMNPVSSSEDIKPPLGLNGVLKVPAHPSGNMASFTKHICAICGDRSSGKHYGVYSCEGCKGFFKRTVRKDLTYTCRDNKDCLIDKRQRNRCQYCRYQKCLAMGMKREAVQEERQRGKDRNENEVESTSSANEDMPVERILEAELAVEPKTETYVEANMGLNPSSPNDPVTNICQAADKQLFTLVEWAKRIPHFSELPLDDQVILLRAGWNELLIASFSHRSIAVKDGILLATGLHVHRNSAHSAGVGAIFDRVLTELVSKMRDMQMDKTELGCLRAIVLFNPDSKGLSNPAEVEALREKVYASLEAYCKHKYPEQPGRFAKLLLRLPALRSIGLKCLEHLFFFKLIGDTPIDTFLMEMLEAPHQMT
Chain of esr1_human ESR1, P03372 (P03372 whole entry): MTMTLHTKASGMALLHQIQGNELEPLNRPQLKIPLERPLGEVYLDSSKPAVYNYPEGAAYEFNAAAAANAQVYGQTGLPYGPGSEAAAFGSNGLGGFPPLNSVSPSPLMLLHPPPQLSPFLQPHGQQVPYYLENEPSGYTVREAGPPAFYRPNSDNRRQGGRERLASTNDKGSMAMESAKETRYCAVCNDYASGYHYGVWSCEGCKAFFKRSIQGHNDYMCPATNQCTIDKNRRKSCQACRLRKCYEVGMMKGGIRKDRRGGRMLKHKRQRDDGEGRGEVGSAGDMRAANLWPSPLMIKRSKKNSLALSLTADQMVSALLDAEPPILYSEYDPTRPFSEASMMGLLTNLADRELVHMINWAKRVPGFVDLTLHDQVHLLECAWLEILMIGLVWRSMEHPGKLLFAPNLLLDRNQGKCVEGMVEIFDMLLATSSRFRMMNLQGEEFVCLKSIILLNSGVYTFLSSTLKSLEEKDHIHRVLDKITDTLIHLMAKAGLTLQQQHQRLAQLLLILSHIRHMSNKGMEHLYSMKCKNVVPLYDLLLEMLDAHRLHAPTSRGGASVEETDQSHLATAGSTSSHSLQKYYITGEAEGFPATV

Turning to L147A;L148A;L210A;L211A, the “effect of a mutation on the interaction” value is given as “disrupting interaction strength” with rxra_human RXRA, P19793 and “disrupting interaction strength” in the test with esr1_human ESR1, P03372. Regarding L210A;L211A, the “effect of a mutation on the interaction” value in the test with rxra_human RXRA, P19793 was “decreasing interaction strength”; with esr1_human ESR1, P03372 it was “with no effect”. On to L147A;L148A, for which the “effect of a mutation on the interaction” value in the test with rxra_human RXRA, P19793 is “disrupting interaction strength”; in the test with esr1_human ESR1, P03372 it was “decreasing interaction strength”.

Consider L147A;L148A, for which the “effect of a mutation on the interaction” value was “decreasing interaction strength” in the test with err1_human ESRRA, P11474 [1] and “with no effect” with err1_human ESRRA, P11474 [2]. Consider L210A;L211A, for which the “effect of a mutation on the interaction” value in the test with err1_human ESRRA, P11474 [1] is given as “decreasing interaction strength”; with err1_human ESRRA, P11474 [2] it was “with no effect”. As for L147A;L148A;L210A;L211A, the “effect of a mutation on the interaction” value in the test with err1_human ESRRA, P11474 [1] was “disrupting interaction strength”.

The values above are taken from IntAct's records for PubMed 12522104.
